Measurements published in patent US8501695B2, “Tissue kallikrein for the treatment of diseases associated with amyloid protein” (DiaMedica, Inc., priority 2007, dated 2013).
Several values for one entry are separate records, joined by “and”; a condition that tells them apart may be missing. Equal entries are not always repeated.

Experiment: Pharmacokinetic study of intranasal tissue kallikrein (125I-KLK1 tissue concentrations by gamma counting)
Assay type: in vivo
Details: rat, 30 min. end point
Procedure: The purpose of this study was to quantify the amount of tissue kallikrein (KLK1) reaching the central nervous system and peripheral tissues after intranasal administration to anesthetized rats. At 30 min after KLK1 administration, animals were transcardially perfused with ice-cold saline followed by paraformaldehyde fixative and tissues were dissected. The amount of radiolabeled KLK1 in each tissue sample was quantified by gamma counting and tissue concentrations were calculated using tissue weight and gamma counting of standards of the dosing solutions
Adult male Sprague Dawley rats (n=10, mean 335.4 g±4.57 g SE) were used for this study. Animals were group housed in the Regions Hospital Animal Care Facility with free access to food and water. Animals were kept on a 12 h light cycle. All experimental procedures were approved by the Animal Care and Use Committee at Regions Hospital under IACUC protocol number 08-022.
Tissue kallikrein was sent to Perkin-Elmer for ^125I-labelling (Quote NEX-084, lot C1541583). Non-labeled KLK1 from Sigma (cat#K3627-1KU, lot 018K1441) was also used. Non-labeled KLK1 was dissolved in 1×PBS (10×PBS, Sigma, cat #P5493, lot 027K8405 diluted in sterile water). The average dose was 48.1 μL, 75 μCi, and 2.6 mg.
• a. Prior to anesthesia, each rat was weighed. • b. An anesthesia cocktail was prepared and full, half, and quarter anesthesia doses were calculated according to the animal's weight with a full dose containing 30 mg/kg ketamine, 6 mg/kg xylazine, and 1 mg/kg acepromazine. • c. A 1-cc syringe fitted with a 25 G or 27 G, ½ inch needle was assembled and a full dose was drawn into the syringe for injection. • d. Rats were restrained in a towel as follows. Rats were placed ventral side down in the middle of a hand towel. The towel was then wrapped around the head and shoulders to restrain. Wrapped animals remained ventral side down while the left hind leg was located. • e. The left hind leg was drawn to the side and the needle was inserted just beneath the skin (subcutaneous) above the thigh. After ensuring that the needle was placed subcutaneously (and not intramuscularly), full doses were injected. Rats were placed in holding cages and the injection time noted. Animals should be under within 5 min. • f. Anesthesia was monitored throughout the procedures by assessing reflexes using pinching of the hind paw or tail. If a reflex was present, a half or quarter dose booster was administered as necessary. • g. During drug administration, animals received a half dose booster roughly 20-25 min after initial dose. Intranasal Delivery of ^125I-KLK1 • a. Anesthetized rats were placed on their backs on a heating pad in a metal surgical tray. The heating pad was connected to a thermostat and was automatically regulated to maintain a 37° C. temperature based on continuous measurement from a rectal probe. • b. A 2″×2″ gauze pad was rolled tightly into a pillow, taped together, and under the neck to maintain a correct neck position horizontal with the counter. • c. A lead impregnated shield was placed between the surgical tray and the experimenter for protection against radiation. The dose solution, pipette, pipette tips, and waste receptacle were arranged behind the shield for easy access. • d. A 6 μL drop was loaded into the pipette behind the shield. • e. A cotton swab covered in parafilm was used to occlude one naris completely (the flat part of the swab was pushed gently against the naris to prevent airflow), while the 6 μL drop was expelled slowly from the pipette (held at a 45° angle from the rat's midline), forming a drop on the pipette tip. The drop was lowered onto the open naris to be inhaled. • f. After two minutes, the alternate naris was occluded and a 6 μL drop was administered in the same fashion. • g. A drop was administered as described above every two minutes to alternating nares until a total of 8 drops was delivered (4 to each naris) over 14 min. • h. […]

[1] = individual animal, listed as kallikrien

B1: tissue kallikrein: serine protease that cleaves kininogen into kallidin; polypeptide SEQ ID NO:1 (Sus scrofa kallikrein 1), KLK1 from Sigma (protein, listed as Sus scrofa)
chain: MWSLVMRLALSLAGTGAAPPIQSRIIGGRECEKDSHPWQVAIYHYSSFQCGGVLVDPKWVLTAAHCKNDNYQVWLGRHNLFENEVTAQFFGVTADFPHPGFNLSLLKNHTKADGKDYSHDLMLLRLQSPAKITDAVKVLELPTQEPELGSTCQASGWGSIEPGPDDFEFPDEIQCVELTLLQNTFCADAHPDKVTESMLCAGYLPGGKDTCMGDSGGPLICNGMWQGITSWGHTPCGSANKPSIYTKLIFYLDWINDTITENP
modifications: 125I label in one form
- concentration in Ventral Dura (Avg, outliers removed): 143.0 nM
- concentration in Amygdala [1]: 13.5 nM and 10.9 nM and 14.16 nM and 18.3 nM and 12.1 nM and 25.4 nM and 15.2 nM and 13.9 nM and 24.6 nM and 13.7 nM
- concentration in Anterior Olfactory Nucleus [1]: 23.1 nM and 15.1 nM and 24.0 nM and 20.5 nM and 19.3 nM and 44.8 nM and 29.2 nM and 25.2 nM and 45.6 nM and 21.2 nM
- concentration in Anterior Trigeminal Nerve [1]: 233.5 nM and 75.1 nM and 83.9 nM and 83.5 nM and 108.3 nM and 68.8 nM and 111.7 nM and 139.2 nM and 77.5 nM
- concentration in Axillary Nodes (2) [1]: 44.6 nM and 38.9 nM and 58.8 nM and 44.4 nM and 43.9 nM and 48.8 nM and 28.6 nM and 33.5 nM and 47.7 nM and 34.0 nM
- concentration in Blood Sample [1]: 292.4 nM and 272.4 nM and 327.7 nM and 288.9 nM and 275.6 nM and 231.1 nM and 233.0 nM and 251.9 nM and 242.4 nM and 268.4 nM
- concentration in Carotid Artery [1]: 127.5 nM and 55.9 nM and 111.2 nM and 103.2 nM and 138.7 nM and 175.1 nM and 84.9 nM and 115.6 nM and 108.2 nM
- concentration in Cerebellum [1]: 9.3 nM and 10.6 nM and 10.06 nM and 13.2 nM and 11.2 nM and 12.2 nM and 8.6 nM and 14.7 nM and 7.8 nM
- concentration in Cervical Nodes (2) [1]: 214.4 nM and 3.1 nM and 116.3 nM and 72.1 nM and 100.5 nM and 119.9 nM and 103.7 nM and 196.0 nM and 174.6 nM
- concentration in Circle of Willis & Basilar Artery [1]: 190.7 nM and 56.9 nM and 44.4 nM and 133.6 nM and 87.4 nM and 178.2 nM and 115.5 nM and 44.1 nM and 134.1 nM and 48.3 nM
- concentration in Dorsal Dura [1]: 116.0 nM and 92.5 nM and 118.2 nM and 156.9 nM and 116.8 nM and 131.0 nM and 132.9 nM and 242.5 nM and 89.5 nM
- concentration in Esophagus [1]: 118.0 nM and 66.9 nM and 109.6 nM and 87.7 nM and 68.1 nM and 40.9 nM and 65.1 nM and 85.4 nM and 128.1 nM and 82.4 nM
- concentration in Extra Cortex [1]: 10.3 nM and 11.3 nM and 12.40 nM and 13.3 nM and 13.8 nM and 17.2 nM and 12.8 nM and 16.6 nM and 9.8 nM
- concentration in Extra Slice #1 [1]: 17.1 nM and 16.2 nM and 19.4 nM and 16.6 nM and 16.9 nM and 43.2 nM and 31.1 nM and 29.6 nM and 22.7 nM
- concentration in Extra Slice #2 [1]: 9.2 nM and 11.0 nM and 12.33 nM and 17.0 nM and 11.7 nM and 28.5 nM and 17.6 nM and 17.3 nM and 27.0 nM and 15.6 nM
- concentration in Extra Slice #3 [1]: 8.8 nM and 9.6 nM and 11.43 nM and 10.7 nM and 9.9 nM and 23.3 nM and 17.2 nM and 13.6 nM and 21.0 nM and 13.8 nM
- concentration in Extra Slice #4 [1]: 7.5 nM and 8.6 nM and 9.4 nM and 9.9 nM and 18.4 nM and 14.7 nM and 10.5 nM and 17.0 nM and 11.8 nM
- concentration in Extra Slice #5 [1]: 7.7 nM and 7.6 nM and 10.7 nM and 9.2 nM and 10.8 nM and 19.2 nM and 18.6 nM and 9.7 nM and 14.8 nM and 9.9 nM
- concentration in Extra Slice #6 [1]: 7.9 nM and 8.1 nM and 12.1 nM and 10.5 nM and 12.2 nM and 16.7 nM and 10.4 nM and 14.8 nM and 9.5 nM
- concentration in Frontal Cortex [1]: 12.0 nM and 16.1 nM and 15.8 nM and 16.9 nM and 17.4 nM and 45.7 nM and 27.7 nM and 26.8 nM and 38.9 nM and 22.0 nM
- concentration in Heart [1]: 17.4 nM and 16.0 nM and 21.9 nM and 30.1 nM and 12.7 nM and 31.4 nM and 13.7 nM and 23.2 nM and 22.8 nM and 37.0 nM
- concentration in Hippocampus [1]: 7.0 nM (2×) and 11.6 nM and 10.6 nM and 8.8 nM and 16.4 nM and 13.4 nM and 13.7 nM and 8.2 nM
- concentration in Hypothalamus [1]: 17.1 nM and 11.9 nM and 21.1 nM and 15.8 nM and 17.4 nM and 37.6 nM and 28.8 nM and 15.7 nM and 38.9 nM and 17.3 nM
- concentration in Kidney (L, tip) [1]: 179.0 nM and 213.3 nM and 187.5 nM and 115.0 nM and 24.6 nM and 35.5 nM and 103.9 nM and 240.4 nM and 212.2 nM and 36.9 nM
- concentration in Liver (R, superficial lobe) [1]: 18.7 nM and 37.1 nM and 25.7 nM and 26.6 nM and 40.2 nM and 26.1 nM and 16.4 nM and 16.1 nM and 21.8 nM and 28.8 nM
- concentration in Lower Cervical Spinal Cord [1]: 5.3 nM and 6.6 nM and 7.3 nM (2×) and 5.2 nM and 4.7 nM and 7.0 nM and 6.5 nM and 10.1 nM and 10.9 nM
- concentration in Lumbar Spinal Cord [1]: 5.1 nM and 4.9 nM and 5.8 nM and 4.7 nM and 5.0 nM and 5.35 nM and 4.2 nM (2×) and 5.6 nM and 4.6 nM
